Experimental data from article PMC5772552.

How the values were obtained:
Test in all cases: ELISA; semi-quantitative; plate coated with 30 nM protein (GST-tagged cohesin) in 0.1 M Na2CO3 pH 9.6 at 4 °C; His6-tagged dockerin 10 pM-1 μM in TBS with 1 mM CaCl2 and 1% BSA, 1 h, room temperature; anti-6xHis and HRP secondary antibody; fit with Hill equation
[1] = target: GST-Cohwt (from plasmid pGEX-Cohwt) (Clostridium thermocellum) (UniProt Q06851)
[2] = target: BSA (bovine (from the name BSA)) (UniProt P02769)
Sequence of UniProt P02769 (P02769 25-607): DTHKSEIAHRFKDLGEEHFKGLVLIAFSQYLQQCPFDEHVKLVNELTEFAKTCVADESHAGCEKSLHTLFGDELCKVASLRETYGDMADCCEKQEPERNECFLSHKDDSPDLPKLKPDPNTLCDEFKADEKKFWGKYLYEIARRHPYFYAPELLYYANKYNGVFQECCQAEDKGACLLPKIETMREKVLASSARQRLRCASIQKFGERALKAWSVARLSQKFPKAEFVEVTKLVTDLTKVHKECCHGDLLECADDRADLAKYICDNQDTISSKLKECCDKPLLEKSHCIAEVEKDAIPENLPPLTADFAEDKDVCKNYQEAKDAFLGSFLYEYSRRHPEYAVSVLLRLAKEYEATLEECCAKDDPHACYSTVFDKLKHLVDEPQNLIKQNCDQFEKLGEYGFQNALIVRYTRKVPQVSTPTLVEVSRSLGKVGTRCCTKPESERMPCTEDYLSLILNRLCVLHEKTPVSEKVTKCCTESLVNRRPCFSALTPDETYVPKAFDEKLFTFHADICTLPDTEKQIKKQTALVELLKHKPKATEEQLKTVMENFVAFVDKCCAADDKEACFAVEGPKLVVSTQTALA

[3] = target: GST-Coh1 (from plasmid pGEX-Coh1) (Clostridium thermocellum)

“MBP-X6b-Docwt-His6 (from plasmid pMAL-Docwt) (from UniProt P51584 733-791) (domain or fragment)” showed a Kd [1] of 0.77 nM, a Kd [2] greater than 1000 nM and a Kd [3] greater than 500 nM.
